Test system: MS2 coat protein
Assay: apparent KD of MS2 coat protein; higher = weaker reporter binding
Conditions: Eterna round: R107
In short: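 Normalised binding curves from single clusters were fitted, and the median fit for each design is given as apparent KD. The clusters held designed RNA switches transcribed on-chip from Illumina sequencing clusters. These were titrated with SNAP-549-labelled MS2 coat protein (twofold steps from 0.7 or 1.5 nM to 3 µM, 0.8–1.5 h to 10–20 min per step) in 100 mM Tris-HCl pH 7.5, 80 mM KCl, 4 mM MgCl2, without or with constant ligand.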

[1] = input ligand: theophylline 20 uM
[2] = input ligand: theophylline 2 mM
[3] = input ligand: tryptophan 2.4 mM

Sequence	apparent KD of MS2 coat protein (input ligand: arginine 13.2 mM) [nM]	apparent KD of MS2 coat protein (input ligand: none) [nM]	apparent KD of MS2 coat protein [1] [nM]	apparent KD of MS2 coat protein [2] [nM]	apparent KD of MS2 coat protein [3] [nM]
UUCAGCUAGUCGGCCGCCACUACUUGAGGAUCACCCAAGUAAUCCUAACACUGCUUCGGCAGUGGUAGGACCGGGACUAGCUGAG	8.78	10.9	12	11.5	15.1
AAACAUGAGGAUCACCCAUGUGCUCCUGUCCGAGGACCGGUACGGCCGCCACUCGGUUCUCGGGAGGAUGGUCAAAGACUAUCCA [Omei Trp A SS B v10]	60.7	50.6	44.7	57.8	48.8
CUGCCAUGCAGAGAUACCAGUGAGCUCAAAACAUGAGGAUCACCCAUGUAAAUUGCCGAUCACCCUUGGCAGCUCUGCAUGGCAG [}=%#^]	13.7		10.3		9.55
UCAUGCAGGUCGGCCGCCACUACACACAUGAGGAUCACCCAUGUAGUUACUGGGUGAAGUGGCAGUAGGACCGGGACCUGCACAU [Brourdmod16]	253	607	369	452	460
AGUGUUAUAACUGAUACCAGACUUUUGCUUAUACAUGAGGAUCACCCAUGUAAAAUGGUUGUCCCUUGGCAGCAGAAGUUACACA [JR_SSTheophyB_Sub008]	104		96.1		58.6
UACAGUACAACAGAUACCAGACAGUACUCUAGAUUGCAACAUGAGGAUCACCCAUGUAUAGUCCCUUGGCAGCUGUAAUGGGUGA [Theo B SS s1]	142		195		77.2
AUAUGGCGAGAUGAUACCAGACACAUGAGGAUCACCCAUGUUGAUGGUAAGUCUGCAUAUGUCCCUUGGCAGCAUAGCGACAUAU [X-TheoB-ms2@23]	8.63		11.9		8.34
UCGUGUGUUUCGGAUACCAGUGAAAUCGAUACAUGAGGAUCACCCAUGUGAGAGGAUGUACACCCUUGGCAGCUGUCUGUAGCGG [asczmullin]	26.9		38		38.3
ACGACAUGAGGAUCACCCAUGUACUCUGAAGGAGCGUCGAUUACGACAGGUAGGUCGCAGGCUAAGGAUGGUGAUGCUCAAGACG [Exclusion Arginine A GF8]	53.5	87.7	90.4	114	57.8
AUGGCGUUGGUGUAGCUGUGAAAUGGCGAUACCAGCGUGGAAACACGCCCUUGGCAGCGCCAAAACAUGAGGAUCACCCAUGUUA [Hradec]	16.6		45.1		18.1
UGUAACAUGAGGAUCACCCAUGUGAGUGAUACCAGAUUAGUAGUAGUCCCUUGGCAGCAUAUUGGGCGAGUGUAUAGUCUAUGCG [Same State - Theophylline A (Freestyle 10)]	94		250		205
AAUAAUAAGGCGGCCGCCACUAAACAUGAGGAUCACCCAUGUCUCGAGCGCUUGCGUUUGGGAAGUAGGACCGGGCCAAUAAUAA [Exclusion - Tryptophan B (Freestyle 5)]	14.2	14.5	16.4	18.1	14.2
ACCCAUAAUUGGGCGGGUGGAUUGAGUGAUACCAGUCGUAUACAUGACCCUUGGCAGCACCGACAUGAGGAUCACCCAUGUGCCA [Same State Theophylline A GF23]	25.9		38.4		46
AGGCAGUAGGUGAUCCACUGCCAAGGUGAUACCAGCAUCGAAAGAUGCCCUUGGCAGCACCAACAUGAGGAUCACCCAUGUAAUA [(MT)''-(M)'-(T')-(Theo)-(Ms2)_Design1/22_9]	36.9		186		99.2
UGACGAUACCUGGAUACCAGCGACAUGAGGAUCACCCAUGUAUGAGGAUCAGCCAUGUUAUGCCCUUGGCAGCCACGAAGGUCUU [CSCMULLIN]	28.9		55.4		33.1
UAUAAAAUAACAGAUACCAGCGUGUUAUAAAACAUGAGGAUCACCCAUGUAGUGAUCAAGCGCCCUUGGCAGCUGGUAUUUUAUG [7.C]	92.3		166		58.1
